Experiments:
[1] = molecular target: T1, human C3b (Homo sapiens, UniProt P01024); test: SPR (Biacore T100) binding to human C3b; details: Table 19, SPR; read-out: Affinity human C3b
T1 construct: C3b is derived from native C3 and is the larger of two elements formed by the cleavage of C3
Description: The kinetic parameters of the candidates are determined using a surface plasmon resonance (SPR) and Biacore T100 device. C3 and different variants thereof (Table 19) are immobilized as a ligand on a HC30M SPR sensor chip (XanTec bionanalytics, Germany) using EDC/[…] linking chemistry. Five increasing concentrations of each molecule (analyte) are consecutively injected using the single cycle kinetics (SCK) mode to determine the kinetic parameters. Regeneration between the candidates is done with 10 mM glycine*HCl, 2 M NaCl, pH 3.5. The data is fitted to a 1:1 Langmuir binding model and the kinetic parameters of on-rate (ka), off-rate (kd), and affinity […] were determined.

[2] = Concentration-dependent monomeric stability study at 37° C.; format: physicochemical; details: for Monomeric purity/content loss after two weeks incubation at 37° C.: >100 mg/mL protein concentration; for Monomeric content after 2 weeks at 37° C. / Monomeric content at start: Clone XI 152 mg/mL, Clone X 100 mg/mL
Description: The stability of Clone VI's heavy chain framework was explored by introducing framework substitutions, thereby creating inter alia Clone X (SEQ ID NO: 38). Clone X and its disulfide bond stabilized variant Clone XI (SEQ ID NO: 39) were compared in a stability study at 37° C. and >100 mg/mL protein concentration.

T1 sequence (P01024 23-667 limits assumed): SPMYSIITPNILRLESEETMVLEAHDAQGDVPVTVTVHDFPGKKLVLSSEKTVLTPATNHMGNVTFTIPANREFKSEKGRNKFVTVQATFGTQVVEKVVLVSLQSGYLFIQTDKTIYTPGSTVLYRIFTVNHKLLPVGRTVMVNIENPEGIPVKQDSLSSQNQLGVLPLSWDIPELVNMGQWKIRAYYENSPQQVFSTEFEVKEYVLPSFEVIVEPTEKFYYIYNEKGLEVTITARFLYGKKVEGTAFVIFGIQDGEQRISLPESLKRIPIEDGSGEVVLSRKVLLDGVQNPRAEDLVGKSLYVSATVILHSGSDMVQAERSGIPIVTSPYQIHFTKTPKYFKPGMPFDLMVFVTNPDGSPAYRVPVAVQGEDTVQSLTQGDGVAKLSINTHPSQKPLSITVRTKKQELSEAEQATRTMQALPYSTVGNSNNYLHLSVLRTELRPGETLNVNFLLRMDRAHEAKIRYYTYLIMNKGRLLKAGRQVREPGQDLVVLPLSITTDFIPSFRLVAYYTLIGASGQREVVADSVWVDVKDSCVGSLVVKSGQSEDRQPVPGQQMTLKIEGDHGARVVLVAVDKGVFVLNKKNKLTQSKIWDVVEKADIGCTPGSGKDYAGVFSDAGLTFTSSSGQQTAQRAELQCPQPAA
T1 sequence (P01024 749-1663 limits assumed): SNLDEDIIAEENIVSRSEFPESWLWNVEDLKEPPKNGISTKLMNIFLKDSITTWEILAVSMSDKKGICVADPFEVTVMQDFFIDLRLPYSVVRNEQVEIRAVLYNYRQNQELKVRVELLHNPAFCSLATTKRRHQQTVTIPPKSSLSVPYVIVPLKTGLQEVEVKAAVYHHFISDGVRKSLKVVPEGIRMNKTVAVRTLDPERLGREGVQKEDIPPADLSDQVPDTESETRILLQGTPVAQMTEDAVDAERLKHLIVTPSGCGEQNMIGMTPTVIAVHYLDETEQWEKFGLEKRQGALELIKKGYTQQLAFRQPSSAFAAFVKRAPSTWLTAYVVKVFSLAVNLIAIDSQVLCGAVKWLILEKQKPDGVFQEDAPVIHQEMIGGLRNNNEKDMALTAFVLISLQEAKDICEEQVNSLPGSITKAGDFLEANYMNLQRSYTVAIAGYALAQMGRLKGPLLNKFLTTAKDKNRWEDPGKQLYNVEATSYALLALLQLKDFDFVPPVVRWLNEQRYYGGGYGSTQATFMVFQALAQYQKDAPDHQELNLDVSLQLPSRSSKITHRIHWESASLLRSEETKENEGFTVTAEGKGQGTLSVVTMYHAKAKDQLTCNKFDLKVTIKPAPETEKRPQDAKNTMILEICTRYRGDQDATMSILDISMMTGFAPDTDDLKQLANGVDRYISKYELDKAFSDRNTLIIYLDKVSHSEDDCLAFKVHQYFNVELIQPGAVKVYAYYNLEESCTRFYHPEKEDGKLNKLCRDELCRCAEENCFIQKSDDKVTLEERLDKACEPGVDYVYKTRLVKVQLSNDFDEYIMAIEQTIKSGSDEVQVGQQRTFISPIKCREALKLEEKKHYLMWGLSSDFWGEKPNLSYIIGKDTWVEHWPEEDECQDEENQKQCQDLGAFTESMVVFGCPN

Molecule	Kd [1] [nM]	Monomeric purity/content loss after two weeks incubation at 37° C. [2] [%]	Monomeric content after 2 weeks at 37° C. [2] [%]	Monomeric content at start [2] [%]
Compound A3 Fab: NGM621 surrogate in a Fab format (antibody, V domains shown) VH: QVQLVQSGAEVKKPGASVKVSCKASGYTFTDFYMDWVRQAPGQRLEWMGYIYPHNGGTTYNQQFTGRVTITVDKSASTAYMELSSLRSEDTAVYYCARRGGFDFDYWGQGTLVTVSS VL: DIQMTQSPSSLSASVGDRVTITCKASENVDTYVSWYQQKPGKAPKLLIYGASNRYTGVPSRFSGSGSGTDFTFTISSLQPEDIATYHCGQSHSYPLTFGQGTKLEIKR	> 34	–	–	–
Clone XI: disulfide bond stabilized variant of Clone X, SEQ ID NO: 39 (protein, ScFv) scFv: MQLVLTQSPSASASLGASVKLTCTLSSAHKTYTIDWYQQQPEKCPRYLMQLKSDGSYTKGTGVPDRFSGSSSGAERYLTISSLQSEDEADYYCGTDYGGGYVFGGGTKLTVLGGGGGSGGGGSGGGGSGGGGSQVQVVESGGGSVQPGRSLRLSCTVSGFSLYNYAMNWVRQAPGKGLEWIGIINTDGNTNYASWAKGRFTISTDNSKNTVYLQMNSLRAEDTASYYCARAVGYHHHALDPWGCGTSVTVSS	–	3.3	96.5	99.8
Clone X: Clone VI with heavy chain framework substitutions, SEQ ID NO: 38 (protein, ScFv) scFv: MQLVLTQSPSASASLGASVKLTCTLSSAHKTYTIDWYQQQPEKGPRYLMQLKSDGSYTKGTGVPDRFSGSSSGAERYLTISSLQSEDEADYYCGTDYGGGYVFGGGTKLTVLGGGGGSGGGGSGGGGSGGGGSQVQVVESGGGSVQPGRSLRLSCTVSGFSLYNYAMNWVRQAPGKGLEWIGIINTDGNTNYASWAKGRFTISTDNSKNTVYLQMNSLRAEDTASYYCARAVGYHHHALDPWGQGTSVTVSS	–	60.4	39.3	99.7

Source: patent US12344663B2, “Anti-C3 antibodies and antigen-binding fragments thereof and their uses for treating eye or ocular diseases” (CDR-Life AG, priority 2021, dated 2025)
